Reference: the supplement of paper PMC9732359
± gives the uncertainty stated by the source.

Test: protein stability index of a GFP-peptide fusion (yeast GPS) (PSI 1-4); higher = more stable; sorted into four equal gates, so the index is relative within each strain
Outline: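 Tiled 17-residue peptides from yeast proteins were fused downstream of GFP on a plasmid that also expresses Cherry, and the pooled library was carried in yeast. Mid-log cultures grown in leucine-free medium were sorted into four equal gates by GFP/Cherry fluorescence ratio. Plasmids from each gate were PCR-amplified and Illumina-sequenced, and reads were assigned to strains by barcodes. Each peptide's protein stability index is the sum, over gates, of the gate's read frequency multiplied by its gate number.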

| Sequence | protein stability index (doa10∆) | protein stability index (pdr5∆) | protein stability index (san1∆) | protein stability index (ubr1∆) |
| --- | --- | --- | --- | --- |
| LASPEVKVHMDSETSDP [DIS3] | 3.09 ± 0.082 | 3.38 ± 0.071 | 3.03 ± 0.071 | 3.12 ± 0.051 |
| QEESFSLNLGIGIVEIA [SRB8] | 1.33 ± 0.11 | 1.79 ± 0.088 | 2.08 ± 0.29 | 1.89 ± 0.094 |
| KHLEDNTLLISGPFKVN [RPL6A] | 1.83 ± 0.085 | 2.01 ± 0.072 | 1.63 ± 0.13 | 2.14 ± 0.048 |
| IVTALLESDVNIALVSK [SRP54] | 3.22 ± 0.18 | 3.19 ± 0.088 | 3.24 ± 0.12 | 3.35 ± 0.12 |
| HKPNEGRTPNISNGTIN [SIR4] | 2.92 ± 0.071 | 2.9 ± 0.046 | 2.99 ± 0.056 | 3.07 ± 0.048 |
| LSPSDQFAPAFLNTPNN [SSN2] | 1.96 ± 0.069 | 2.23 ± 0.1 | 2.06 ± 0.13 | 2.44 ± 0.098 |
| SSSSLECATCHGNLASC [RPO31] | 2.79 ± 0.046 | 3.04 ± 0.058 | 3.05 ± 0.049 | 2.95 ± 0.037 |
| IEDDGIIESHLIQLQNI [CSN9] | 2.77 ± 0.1 | 3.17 ± 0.099 | 2.97 ± 0.075 | 2.76 ± 0.073 |
| FSRRFDCRDVYCHEKEL [CSN9] | – | – | – | 2.99 ± 0.19 |
| CRVDFKNPHDIIEGINA [RPL12A] | 2.19 ± 0.07 | 2.45 ± 0.072 | 1.83 ± 0.12 | 2.43 ± 0.05 |
| LKLSMADYNGALLRVTK [POP4] | 2.82 ± 0.076 | 2.52 ± 0.05 | 2.61 ± 0.07 | 2.52 ± 0.053 |
| NNPLVQKKNFLFKPLNK [ARP7] | 2.33 ± 0.23 | 2.51 ± 0.14 | 2.2 ± 0.28 | – |
| LNEYKRETLVKTWEKVT [SMC2] | 1.67 ± 0.046 | 1.84 ± 0.046 | 1.77 ± 0.083 | 2.19 ± 0.039 |
| GKTIVVKDLGQGLKLAK [SMC3] | 2.9 ± 0.15 | 2.92 ± 0.15 | 2.45 ± 0.16 | 2.81 ± 0.067 |
| QYYLSVLNQQLPIESQF [BRR2] | 2.28 ± 0.059 | 2.66 ± 0.059 | 2.65 ± 0.055 | 2.42 ± 0.039 |
| PSAFNFTGNNSTPGGGS [YOR098C/NUP1] | – | – | 3.14 ± 0.13 | – |
| QVRKKQIETINFLRLPA [YDL116W/NUP84] | 3.07 ± 0.11 | 2.89 ± 0.097 | 2.86 ± 0.07 | 2.81 ± 0.11 |
| QQQQQQQQQQQQQQQQH [GAL11] | 2.68 ± 0.033 | 2.8 ± 0.029 | 2.698 ± 0.025 | 2.878 ± 0.024 |
| SNISDEKSRISERDSKD [YMR129W/POM152] | 3.06 ± 0.1 | 3.12 ± 0.076 | 2.87 ± 0.075 | 3.13 ± 0.063 |
| DAVEGVSECIILGQTMS [RPO31] | 1.7 ± 0.21 | 1.46 ± 0.077 | 1.45 ± 0.12 | 1.56 ± 0.13 |
| PTFTFGSSALADNKEDV [YLR335W/NUP2] | 3.13 ± 0.074 | 3.06 ± 0.049 | 3.06 ± 0.041 | 3.09 ± 0.033 |
| KHHQLFYMLNAGIRPKF [RPN1] | 2.23 ± 0.17 | 2.04 ± 0.085 | 1.7 ± 0.082 | 1.98 ± 0.1 |
| FKYVSVRYEEKRELKQL [BRR2] | 2.63 ± 0.068 | 2.93 ± 0.056 | 2.93 ± 0.067 | 3.13 ± 0.05 |
| DGRSFDQFRDVEITFGK [RRP45] | 3.27 ± 0.092 | 3.3 ± 0.058 | 3.54 ± 0.077 | 3.21 ± 0.057 |
| EDVVAISSRTYGQRAVL [RPS0B] | 3.28 ± 0.12 | 3.03 ± 0.06 | 3.01 ± 0.087 | 3.1 ± 0.049 |
| NEDSKAFHTAVLRLNAI [NUT1] | 3.26 ± 0.058 | 3.34 ± 0.055 | 3.41 ± 0.047 | 3.27 ± 0.051 |
| FFLGYMINRLLLCALDR [RPB2] | 1.51 ± 0.17 | – | – | 1.68 ± 0.12 |
